Experimental findings from article PMC10925351 (bioRxiv, 2025) are described below.

Where a chain is given by its changes, count along the chain named. Names may count otherwise.

Test in all cases: reconstitution of a complex by mixing purified proteins
In experiment [1] the target is Clb2-Cdk1 complex (wild-type Clb2) (S. cerevisiae, UniProt P24869;P00546, phosphothreonine at T169 (by Cak1)).
Experiment [2] concerns the target T1, Clb2 (wild-type), 6xHis-tagged (S. cerevisiae, UniProt P24869 1-491).
T1 sequence: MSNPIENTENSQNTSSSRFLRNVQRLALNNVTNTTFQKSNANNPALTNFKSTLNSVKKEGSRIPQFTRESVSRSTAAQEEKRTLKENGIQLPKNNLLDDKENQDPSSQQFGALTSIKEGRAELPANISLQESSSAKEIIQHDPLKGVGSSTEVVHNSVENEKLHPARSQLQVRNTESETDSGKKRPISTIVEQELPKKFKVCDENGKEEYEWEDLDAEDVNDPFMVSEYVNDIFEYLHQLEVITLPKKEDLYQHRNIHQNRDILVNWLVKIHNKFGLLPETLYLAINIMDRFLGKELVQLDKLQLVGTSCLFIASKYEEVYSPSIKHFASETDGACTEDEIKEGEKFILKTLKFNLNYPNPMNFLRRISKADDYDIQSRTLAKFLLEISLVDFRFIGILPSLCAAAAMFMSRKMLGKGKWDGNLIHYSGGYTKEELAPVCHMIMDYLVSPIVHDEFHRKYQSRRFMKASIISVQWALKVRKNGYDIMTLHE

Experiment [3] addresses T2, Clb2-pp mutant (R366A, R379A, K383A), 6xHis-tagged (S. cerevisiae, UniProt P24869 1-491, R366A | R379A | K383A).
T2 sequence: T1 sequence with R366A, R379A, K383A

Clb2-Cdk1 complex (wild-type Clb2), sequence (P00546 whole entry, one chain of several): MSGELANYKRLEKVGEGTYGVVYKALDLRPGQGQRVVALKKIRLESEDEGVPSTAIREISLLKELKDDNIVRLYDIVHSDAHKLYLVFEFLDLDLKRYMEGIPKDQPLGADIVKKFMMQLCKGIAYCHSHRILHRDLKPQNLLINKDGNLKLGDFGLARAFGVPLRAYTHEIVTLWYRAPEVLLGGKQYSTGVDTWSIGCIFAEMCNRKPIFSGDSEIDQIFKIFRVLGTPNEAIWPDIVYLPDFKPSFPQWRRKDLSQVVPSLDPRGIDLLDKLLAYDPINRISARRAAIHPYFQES

B1: Cks1 (wild-type) (natural protein)
chain: MYHHYHAFQGRKLTDQERARVLEFQDSIHYSPRYSDDNYEYRHVMLPKAMLKVIPSDYFNSEVGTLRILTEDEWRGLGITQSLGWEHYECHAPEPHILLFKRPLNYEAELRAATAAAQQQQQQQQQQQQQQQQHQTQSISNDMQVPPQIS
As to B1, the binding result in experiment [1] is given as “binds”.

B2: Cks1 mutant (R33E, S82E, R102A) (natural protein)
chain: B1 chain with R33E, S82E, R102A
As to B2, in experiment [1], the binding result is “binds”.

B3: Cdk1 (Cdc28), T169-phosphorylated, from a GST-TEV-Cdk1 fusion (enzyme)
chain: not shown
modifications: phosphothreonine at T169 (by Cak1)
Turning to B3, the binding result in experiment [2] and in experiment [3] was “binds” throughout.
